# Assay results as given in publication PMC11480844.
# B1: H2-Kb / B13 (parent)
# chain 1: AQKVTQTQTSISVMEKTTVTMDCVYETQDSSYFLFWYKQTASGEIVFLIRQDSYKKENATVGHYSLNFQKPKSSIGLIITATQIEDSAVYFCAMREGTGGYKVVFGSGTRLLVSP
# chain 2: EAAVTQSPRNKVTVTGGNVTLSCRQTNSHNYMYWYRQDTGHGLRLIHYSYGAGNLQIGDVPDGYKATRTTQEDFFLLLELASPSQTSLYFCASSDGTGHEQYFGPGTRLTVL
# chain 3: not shown
# chain 4: IQKTPQIQVYSRHPPENGKPNILNCYVTQFHPPHIEIQMLKNGKKIPKVEMSDMSFSKDWSFYILAHTEFTPTETDTYACRVKHDSMAEPKTVYWDRDM
# chain 5: SIINFEKL
# B2: H2-Kb / B5 (parent)
# chain 1: TQTVSQSDAHVTVFEGDSVELRCNYSYGGSIYLSWYIQHHGHGLQFLLKYYSGNPVVQGVNGFEAEFSKSDSSFHLRKASVHWSDSAVYFCAVSLYQGGRALIFGTGTTVSVSP
# chain 2: EAGVTQSPRYAVLQEGQAVSFWCDPISGHDTLYWYQQPRDQGPQLLVYFRDEAVIDNSQLPSDRFSAVRPKGTNSTLKIQSAKQGDTATYLCASSFAGGARAEQFFGPGTRLTVL
# chain 3: not shown
# chain 4: B1 chain 4
# chain 5: SIINFEKL
# Variants of: B1
# Experiment: % of reporter cells activated (NFAT-GFP), raw
# Settings: with B13; scale: % of reporter cells activated
# Note: test concentration or dose not given here.
row,Variant,ratio to parent
1,chain 5 K7G,0.471
2,chain 5 K7A,0.722
3,chain 5 K7E,0.113
4,chain 5 K7M,4.28
5,chain 5 K7W,1.27
6,chain 5 K7H,0.431
7,chain 5 K7C,1.38
8,chain 5 K7S,1.02
9,chain 5 K7Y,0.195
10,chain 5 K7D,0.108
11,chain 5 K7V,2.07
12,chain 5 K7Q,0.887
13,chain 5 K7L,3.14
14,chain 5 K7R,0.987
15,chain 5 K7T,1.03
16,chain 5 K7I,1.32
17,chain 5 F5K,0.15
18,chain 5 F5S,0.0431
19,chain 5 F5T,0.195
20,chain 5 F5V,0.331
21,chain 5 F5M,0.316
22,chain 5 F5P,0.144
23,chain 5 F5A,0.131
24,chain 5 F5W,0.0204

row,Variant,ratio to parent
1,chain 5 F5N,0.0634
2,chain 5 F5I,0.0887
3,chain 5 F5L,0.117
4,chain 5 F5E,0.0684
5,chain 5 F5D,0.179
6,chain 5 F5Q,0.0482
7,chain 5 F5H,0.366
8,chain 5 F5Y,0.712
9,chain 5 F5G,0.0418
10,chain 5 F5C,0.132
11,chain 5 L8A,0.227
12,chain 5 L8P,2.29
13,chain 5 L8H,0.954
14,chain 5 L8K,0.45
15,chain 5 L8D,2.32
16,chain 5 L8G,1.21
17,chain 5 L8R,1.98
18,chain 5 L8T,0.331
19,chain 5 L8N,3
20,chain 5 L8M,0.471
21,chain 5 L8F,0.189
22,chain 5 L8Q,0.247
23,chain 5 L8C,3.32
24,chain 5 L8Y,0.812

row,Variant,ratio to parent
1,chain 5 L8E,2.13
2,chain 5 L8I,0.992
3,chain 5 L8V,0.393
4,chain 5 L8W,0.423
5,chain 5 I3Y,0.117
6,chain 5 I3W,0.293
7,chain 5 I3F,0.122
8,chain 5 I3L,2.17
9,chain 5 I3S,1.98
10,chain 5 I3R,1.96
11,chain 5 I3G,1.07
12,chain 5 I3K,0.422
13,chain 5 I3M,5.23
14,chain 5 I3E,4.51
15,chain 5 I3H,1.64
16,chain 5 I3Q,4.85
17,chain 5 I3C,5.34
18,chain 5 I3P,5.54
19,chain 5 I3D,0.0646
20,chain 5 I3A,4.66
21,chain 5 I3V,2.29
22,chain 5 I3N,1.58
23,chain 5 I3T,1.56
24,chain 5 I2W,2.33

row,Variant,ratio to parent
1,chain 5 I2S,0.848
2,chain 5 I2N,0.347
3,chain 5 I2G,0.284
4,chain 5 I2F,1.01
5,chain 5 I2H,1
6,chain 5 I2K,1.84
7,chain 5 I2Q,0.243
8,chain 5 I2C,1.49
9,chain 5 I2L,1.48
10,chain 5 I2D,0.523
11,chain 5 I2E,0.75
12,chain 5 I2T,1.09
13,chain 5 I2V,1.98
14,chain 5 N4K,0.0279
15,chain 5 N4D,0.0238
16,chain 5 N4T,0.0378
17,chain 5 N4W,0.025
18,chain 5 N4I,0.179
19,chain 5 N4G,0.101
20,chain 5 N4V,0.0342
21,chain 5 N4L,0.0811
22,chain 5 N4S,0.0507
23,chain 5 N4C,0.0444
24,chain 5 N4F,0.393

row,Variant,ratio to parent
1,chain 5 N4M,0.0596
2,chain 5 N4A,0.052
3,chain 5 N4Y,0.0196
4,chain 5 N4P,0.0596
5,chain 5 N4Q,0.0444
6,chain 5 N4H,0.038
7,chain 5 N4R,0.104
8,chain 5 S1H,0.0963
9,chain 5 S1L,0.112
10,chain 5 S1T,0.544
11,chain 5 S1G,0.236
12,chain 5 S1N,0.0976
13,chain 5 S1R,6.17
14,chain 5 S1A,0.835
15,chain 5 S1Y,0.11
16,chain 5 S1M,1.15
17,chain 5 S1D,0.113
18,chain 5 S1K,0.64
19,chain 5 S1P,0.139
20,chain 5 S1W,1.35
21,chain 5 S1E,0.113
22,chain 5 S1F,0.0232
23,chain 5 S1Q,0.392
24,chain 5 S1C,0.0621

row,Variant,ratio to parent
1,chain 5 S1V,0.857
2,chain 5 S1I,0.381
3,chain 5 E6Y,0.0507
4,chain 5 E6S,0.0411
5,chain 5 E6I,0.0222
6,chain 5 E6T,0.0399
7,chain 5 E6H,0.0361
8,chain 5 E6C,0.0215
9,chain 5 E6F,0.0355
10,chain 5 E6G,0.0583
11,chain 5 E6D,0.0608
12,chain 5 E6N,0.0224
13,chain 5 E6Q,0.0298
14,chain 5 E6K,0.611
15,chain 5 E6V,0.038
16,chain 5 E6M,0.0342
17,chain 5 E6L,0.0292
18,chain 5 E6W,0.0431
19,chain 5 E6P,0.101

# Variants of: B2
# Experiment: % of reporter cells activated (NFAT-GFP), raw
# Settings: with B5; scale: % of reporter cells activated
row,Variant,ratio to parent
1,chain 5 I2T,0.542
2,chain 5 I2P,1.12
3,chain 5 I2G,1.13
4,chain 5 I2N,1.36
5,chain 5 F5D,1.28
6,chain 5 F5R,1
7,chain 5 F5T,0.653
8,chain 5 F5Q,1.14
9,chain 5 K7Q,1.01
10,chain 5 K7N,1.21
11,chain 5 K7C,1.14
12,chain 5 K7D,1.11
13,chain 5 K7M,1.57
14,chain 5 S1Y,0.75
15,chain 5 S1E,0.889
16,chain 5 S1I,1.14
17,chain 5 S1K,0.764
18,chain 5 S1V,1.39
19,chain 5 S1D,1.54
20,chain 5 S1H,1.11
21,chain 5 L8S,1.19
22,chain 5 L8Y,0.958
23,chain 5 L8P,1.15
24,chain 5 L8Q,1.86
25,chain 5 L8T,1.04
26,chain 5 N4V,0.389
27,chain 5 N4M,0.75
28,chain 5 N4Q,1.71
